Laboratory results from patent publication US20100266530A1.

Molecular target: N-terminal GFP-tagged tail-less hFcRn (ssECTM: signal sequence-GFP-ectodomain-transmembrane domain) stably expressed on HEK293 cells (human) [GFP: P42212]
Assay: flow cytometry on ssECTM cells at pH 7.5, 50 ug/ml hIgG-AF647, no competitor

- MFI: 6 MFI
Substance: human IgG (hIgG) (antibody)
